Reference: the supplement of paper PMC10724198
± gives the standard deviation of the averaged measurements.

Test system: Saccharomyces cerevisiae
Assay: protein stability index of tFT-peptide fusion (C-terminal peptide) (PSI (0-1 scale)); higher = more stable (slower turnover)
Conditions: temperature: 30 C
Procedure: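 MPS profiling in S. cerevisiae of the yeast C-terminome library: the last 12 aa of each annotated ORF are fused to the C-terminus of a sfGFP-mCherry timer, after a GGGS linker. Cells are FACS-sorted into 8 mCherry/sfGFP bins and deep-sequenced. PSI runs from 0 (unstable) to 1 (stable); wild type and das1Δ backgrounds, two technical replicates each.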

[1] = genetic background: das1 deletion

Sequence	protein stability index [1]	protein stability index (genetic background: wild type)
TSPRAINPKRSA [YDL114W C-terminal 12 aa]	0.695 ± 0.021	0.703 ± 0.02
IYEGFLDHANSF [TFB6 C-terminal 12 aa]	0.735 ± 0.011	0.745 ± 0.012
NCPGCESKPVIT [SSL1 C-terminal 12 aa]	0.678 ± 0.016	0.683 ± 0.0096
IPPLIWLRKKRC [PUL3 C-terminal 12 aa]	0.69553 ± 0.00032	0.664 ± 0.0097
IVFVPSSSYSVN [YJR157W C-terminal 12 aa]	0.711 ± 0.014	0.671 ± 0.021
ATGTKSDRPIWR [SHE1 C-terminal 12 aa]	0.6627 ± 0.00093	0.72 ± 0.034
KILKGAEKKPQL [CNA1 C-terminal 12 aa]	0.689 ± 0.0099	0.707 ± 0.022
SDVAKQLASFGY [RPL16B C-terminal 12 aa]	0.7021 ± 0.0051	0.6663 ± 0.00093
DEEDEEDVKTEV [CAB3 C-terminal 12 aa]	0.6848 ± 0.0014	0.664 ± 0.016
KYVTQILYTPLQ [GAL83 C-terminal 12 aa]	0.692 ± 0.0075	0.7144 ± 0.0036
HSRNPKRSSTTL [TRK1 C-terminal 12 aa]	0.737 ± 0.034	0.767 ± 0.069
ENKPDSTFGIIL [YOR170W C-terminal 12 aa]	0.718 ± 0.019	0.749 ± 0.11
KENSRSWIIYLL [YGL034C C-terminal 12 aa]	0.653 ± 0.016	0.556 ± 0.03
KKVQSYTLQEDY [BUD13 C-terminal 12 aa]	0.695 ± 0.015	0.692 ± 0.03
TSGRYASYRICM [RPB5 C-terminal 12 aa]	0.6941 ± 0.0011	0.664 ± 0.011
RKEIRKQKRATF [MRPS28 C-terminal 12 aa]	0.709 ± 0.059	0.734 ± 0.028
PAETTDEGWTMI [ATG26 C-terminal 12 aa]	0.704 ± 0.023	0.68 ± 0.014
DRIESSSGRISW [SPC110 C-terminal 12 aa]	0.702 ± 0.022	0.681 ± 0.028
SLGGDVHSRRCS [ROQ1 C-terminal 12 aa]	0.7013 ± 0.0028	0.662 ± 0.018
GGPPKVNKDIIS [HAT2 C-terminal 12 aa]	0.708 ± 0.035	0.6995 ± 0.006
SHLFFQLSCSLY [YLL044W C-terminal 12 aa]	0.685 ± 0.038	0.736 ± 0.069

Sequence	protein stability index [1]	protein stability index (genetic background: wild type)
IIDLNLHSFTKQ [POP6 C-terminal 12 aa]	0.722 ± 0.022	0.73 ± 0.021
VIWDNNTKFCWF [YGR111W C-terminal 12 aa]	0.742 ± 0.0097	0.73063 ± 0.00022
KSCVSSLRVMAM [YNL276C C-terminal 12 aa]	0.608 ± 0.013	0.597 ± 0.023
LKTSGRYQEDVW [NCP1 C-terminal 12 aa]	0.706 ± 0.02	0.702 ± 0.02
MWPMPSLPWNGM [TSR1 C-terminal 12 aa]	0.727 ± 0.019	0.687 ± 0.017
YKNRPNKEKDTL [STB6 C-terminal 12 aa]	0.693 ± 0.021	0.688 ± 0.047
FYDLWDAYEDDS [GDB1 C-terminal 12 aa]	0.751 ± 0.028	0.704 ± 0.013
TEFGITKENLGE [TOG1 C-terminal 12 aa]	0.697 ± 0.03	0.691 ± 0.032
ECRKKNYFKCKH [ATG39 C-terminal 12 aa]	0.692 ± 0.0091	0.187 ± 0.0042
EIFNDFSKRCCF [CDC43 C-terminal 12 aa]	0.7326 ± 0.0031	0.73168 ± 0.00037
NDISFAFQYISH [RAD54 C-terminal 12 aa]	0.749 ± 0.014	0.683 ± 0.069
EKKYLNQSQNQA [BSD2 C-terminal 12 aa]	0.684 ± 0.035	0.692 ± 0.059
LDVVKSRGSKHS [HSU1 C-terminal 12 aa]	0.7099 ± 0.003	0.7 ± 0.062
YNSLKKGASKSK [CNL1 C-terminal 12 aa]	0.714 ± 0.021	0.74 ± 0.071
EVDIGLYNCADY [ADE4 C-terminal 12 aa]	0.714 ± 0.05	0.667 ± 0.02
GDDESRPRKMRR [BMS1 C-terminal 12 aa]	0.678 ± 0.0091	0.674 ± 0.012
NSAGLLTLEYLS [TFC6 C-terminal 12 aa]	0.696 ± 0.012	0.719 ± 0.036
DEYFNEYNNNSN [TFB1 C-terminal 12 aa]	0.7196 ± 0.0065	0.675 ± 0.013
ENRPGPYEFRET [FMP41 C-terminal 12 aa]	0.6916 ± 0.0065	0.779 ± 0.053
INEFIEQSCKGE [YMR187C C-terminal 12 aa]	0.687 ± 0.024	0.7 ± 0.044
VANTTNMNMNLM [DIA1 C-terminal 12 aa]	0.6954 ± 0.0035	0.737 ± 0.027

Sequence	protein stability index [1]	protein stability index (genetic background: wild type)
TISNPFGDHNKI [LSB5 C-terminal 12 aa]	0.727 ± 0.034	0.738 ± 0.099
NLRADSFLQYPL [YDR029W C-terminal 12 aa]	0.704 ± 0.0075	0.714 ± 0.021
KYTGVYRSSWHG [YLR125W C-terminal 12 aa]	0.701 ± 0.0013	0.6925 ± 0.0057
CHAYAKKAKEFL [PAM17 C-terminal 12 aa]	0.694 ± 0.019	0.7 ± 0.047
MNRNKSDVPYLQ [YER053C-A C-terminal 12 aa]	0.702 ± 0.014	0.658 ± 0.027
AIAEIKKSLAFA [SDH2 C-terminal 12 aa]	0.684 ± 0.024	0.688 ± 0.086
NENSEIISIDED [CTR86 C-terminal 12 aa]	0.676 ± 0.0078	0.65 ± 0.023
IVILIFDRLLSN [YGL081W C-terminal 12 aa]	0.394 ± 0.021	0.425 ± 0.03
PAAVFTETLKHD [RPL4A C-terminal 12 aa]	0.7 ± 0.016	0.7 ± 0.022
GLQNRLARNNEK [MRP4 C-terminal 12 aa]	0.734 ± 0.018	0.6607 ± 0.0019
TLHLVLRLRGGN [UBI4 C-terminal 12 aa]	0.665 ± 0.013	0.687 ± 0.067
ENLITILDSNYI [ISR1 C-terminal 12 aa]	0.74 ± 0.0095	0.696 ± 0.01
GCVLGKLGYLKM [RAD33 C-terminal 12 aa]	0.719 ± 0.024	0.619 ± 0.07
RIEKYSDDVIPK [RIM13 C-terminal 12 aa]	0.695 ± 0.018	0.722 ± 0.0089
ESNSALDFTRLA [SSU1 C-terminal 12 aa]	0.707 ± 0.025	0.712 ± 0.059
DDEEDEEEGQVA [USO1 C-terminal 12 aa]	0.704 ± 0.013	0.66 ± 0.027
CKSHAITNNITM [YER152C C-terminal 12 aa]	0.711 ± 0.026	0.687 ± 0.0091
RAEIVIEEAGEL [CPR3 C-terminal 12 aa]	0.683 ± 0.011	0.6789 ± 0.0032
DSPDFKKHLEKK [RSM10 C-terminal 12 aa]	0.684 ± 0.025	0.721 ± 0.046
GLNKNMLKKIIK [YPR084W C-terminal 12 aa]	0.715 ± 0.032	0.668 ± 0.03
TKKSTGKGPASS [BOL3 C-terminal 12 aa]	0.7 ± 0.033	0.675 ± 0.03

Sequence	protein stability index [1]	protein stability index (genetic background: wild type)
DTGNTIKCEFIL [ERG29 C-terminal 12 aa]	0.7022 ± 0.0068	0.699 ± 0.017
KIWVNIYSTPTS [PLS1 C-terminal 12 aa]	0.6827 ± 0.0066	0.705 ± 0.035
VKNSPRLLLFFI [YOL160W C-terminal 12 aa]	0.673 ± 0.041	0.53 ± 0.011
KICVTLIVNELI [YLR342W-A C-terminal 12 aa]	0.4662 ± 0.0016	0.39 ± 0.028
MMNFFRDLKYGH [ODC2 C-terminal 12 aa]	0.704 ± 0.004	0.693 ± 0.018
KCIRGGVFLWII [YGL014C-A C-terminal 12 aa]	0.605 ± 0.019	0.309 ± 0.0041
GRDCISKRAILE [IMP2 C-terminal 12 aa]	0.7067 ± 0.0024	0.6702 ± 0.004
TKAVHINLSLDN [ALD2 C-terminal 12 aa]	0.69 ± 0.0043	0.702 ± 0.015
IFCTLFIHTQIL [PLC1 C-terminal 12 aa]	0.138 ± 0.011	0.143 ± 0.023
KFSTRMKLAHGK [SLX1 C-terminal 12 aa]	0.698 ± 0.019	0.728 ± 0.021
CYYKTQKSQISN [SIP1 C-terminal 12 aa]	0.715 ± 0.011	0.727 ± 0.016
IQTLRIKQDRYK [MAK10 C-terminal 12 aa]	0.711 ± 0.0083	0.665 ± 0.029
IGGNCATRLFKL [SLM6 C-terminal 12 aa]	0.7481 ± 0.0008	0.737 ± 0.024
VIAQIDELFEGY [THG1 C-terminal 12 aa]	0.726 ± 0.0083	0.711 ± 0.019
LWNEFLSSINEK [ECM31 C-terminal 12 aa]	0.736 ± 0.036	0.743 ± 0.06
IDKLRNSFYKTI [SMU2 C-terminal 12 aa]	0.687 ± 0.028	0.515 ± 0.028
PLQRNSNVSHHL [MPH2 C-terminal 12 aa]	0.69243 ± 0.00056	0.7038 ± 0.0037
LEWLSNNLKNQS [ARF2 C-terminal 12 aa]	0.702 ± 0.0047	0.714 ± 0.041
ERTKLREKLEII [PXA1 C-terminal 12 aa]	0.7064 ± 0.0059	0.677 ± 0.077
